According to the supplement of paper PMC7125110:
± gives the standard error. Fewer inactive variants are shown than the library holds.

B1: glmS ribozyme (parent)
chain: AUAAAAGCGCCAGAACUACAGAAAUGUAGUUGACGAGGAGGAGGUUUAUCGAAUUUUCGGCGGAUGCCUCCAAA

Assays:
Settings in all cases: with glucosamine-6-phosphate
[1] = variants of: B1; test: self-cleavage kobs at 40 uM GlcN6P; higher = faster cleavage; RNA array
Summary of the method: (§1)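 On sequenced MiSeq chips, barcoded ribozyme variants were made in situ by E. coli RNA polymerase and followed at 37 °C through a hybridised Cy3 probe. Glucosamine-6-phosphate was flowed in at 40 μM to 10 mM in HEPES/KCl/Mg(OAc)2 buffer. Exponential fits to normalised per-tile medians gave kobs, and weighted Michaelis–Menten fits gave kcat and KM.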

[2] = variants of: B1; test: self-cleavage kobs at 640 uM GlcN6P; higher = faster cleavage; RNA array
Summary of the method: as §1

[3] = variants of: B1; test: self-cleavage kobs at 10000 uM GlcN6P; higher = faster cleavage; RNA array
Summary of the method: as §1

[4] = variants of: B1; test: self-cleavage kobs at 2500 uM GlcN6P; higher = faster cleavage; RNA array
Summary of the method: as §1

[5] = variants of: B1; test: self-cleavage kobs at 160 uM GlcN6P; higher = faster cleavage; RNA array
Summary of the method: as §1

Variant	self-cleavage kobs at 40 uM GlcN6P [1]	self-cleavage kobs at 640 uM GlcN6P [2]	self-cleavage kobs at 10000 uM GlcN6P [3]	self-cleavage kobs at 2500 uM GlcN6P [4]	self-cleavage kobs at 160 uM GlcN6P [5]
G21U G43U G51U	< 1e-05 s⁻¹	< 1e-05 s⁻¹	< 1e-05 s⁻¹		
G41C G44U G66U	< 1e-05 s⁻¹		< 1e-05 s⁻¹	< 1e-05 s⁻¹	
C10A G59A	< 1e-05 s⁻¹	< 1e-05 s⁻¹			
A6C G43C G63A C71A	< 1e-05 s⁻¹		< 1e-05 s⁻¹		
A6C A33U C58G G60U C71A	< 1e-05 s⁻¹				
A6U A14U G35C A39U U55A C58A	< 1e-05 s⁻¹		< 1e-05 s⁻¹	< 1e-05 s⁻¹	
U45C C50G	< 1e-05 s⁻¹	< 1e-05 s⁻¹	< 1e-05 s⁻¹	< 1e-05 s⁻¹	< 1e-05 s⁻¹
C8G A36C	< 1e-05 s⁻¹	< 1e-05 s⁻¹		< 1e-05 s⁻¹	< 1e-05 s⁻¹
G9C C10U G44A U54A C71G	< 1e-05 s⁻¹				
G7C A15G A36U	< 1e-05 s⁻¹	< 1e-05 s⁻¹	< 1e-05 s⁻¹		
C8A G13U G41C U55C U65A U69G	< 1e-05 s⁻¹				
G41C G43C	< 1e-05 s⁻¹	< 1e-05 s⁻¹	< 1e-05 s⁻¹		< 1e-05 s⁻¹
G38U U45G	< 1e-05 s⁻¹	< 1e-05 s⁻¹			
G7A G9U C16A G37U U65C	< 1e-05 s⁻¹				
A6C U49G C67U	< 1e-05 s⁻¹			< 1e-05 s⁻¹	
A14G A15G	0.00218 ± 0.00029 s⁻¹	0.0134 ± 0.0029 s⁻¹	0.109 ± 0.035 s⁻¹	0.0102 ± 0.0027 s⁻¹	0.0049 ± 0.0015 s⁻¹
G44C U45G C58G	< 1e-05 s⁻¹				
A6C C58G	< 1e-05 s⁻¹	< 1e-05 s⁻¹	< 1e-05 s⁻¹		
G32U C34G	< 1e-05 s⁻¹	< 1e-05 s⁻¹	< 1e-05 s⁻¹		< 1e-05 s⁻¹
C16G G29C	0.000686 ± 9.2e-05 s⁻¹	0.00972 ± 0.0043 s⁻¹	0.0294 ± 0.0058 s⁻¹	0.00501 ± 0.0018 s⁻¹	0.00103 ± 0.00047 s⁻¹
C10A U31C	< 1e-05 s⁻¹	< 1e-05 s⁻¹	< 1e-05 s⁻¹		
C10U G60U	< 1e-05 s⁻¹	< 1e-05 s⁻¹	< 1e-05 s⁻¹		< 1e-05 s⁻¹
A15G G29A G63U	< 1e-05 s⁻¹		< 1e-05 s⁻¹		
C68U C70U C71U	< 1e-05 s⁻¹				

Variant	self-cleavage kobs at 40 uM GlcN6P [1]	self-cleavage kobs at 640 uM GlcN6P [2]	self-cleavage kobs at 10000 uM GlcN6P [3]	self-cleavage kobs at 2500 uM GlcN6P [4]	self-cleavage kobs at 160 uM GlcN6P [5]
C11G U46A C67G	< 1e-05 s⁻¹		< 1e-05 s⁻¹		
C11G U55G	< 1e-05 s⁻¹				< 1e-05 s⁻¹
G51A U65C	< 1e-05 s⁻¹		< 1e-05 s⁻¹		
A42C G62U	< 1e-05 s⁻¹	< 1e-05 s⁻¹	< 1e-05 s⁻¹	< 1e-05 s⁻¹	
C8U G35A G59U	< 1e-05 s⁻¹				
A6G C58A	< 1e-05 s⁻¹	< 1e-05 s⁻¹		< 1e-05 s⁻¹	< 1e-05 s⁻¹
A6C G35A	< 1e-05 s⁻¹	< 1e-05 s⁻¹	< 1e-05 s⁻¹	< 1e-05 s⁻¹	< 1e-05 s⁻¹
A6G A36C G41U	< 1e-05 s⁻¹	< 1e-05 s⁻¹	< 1e-05 s⁻¹		
C11A A14C A36G C50U C58U C61G	0.000206 ± 8.1e-05 s⁻¹				
G9U G51A	< 1e-05 s⁻¹	< 1e-05 s⁻¹	< 1e-05 s⁻¹		< 1e-05 s⁻¹
C16G A36G	< 1e-05 s⁻¹	< 1e-05 s⁻¹	< 1e-05 s⁻¹		< 1e-05 s⁻¹
A12G G62A	< 1e-05 s⁻¹	< 1e-05 s⁻¹	< 1e-05 s⁻¹		
G29A A39G	0.000267 ± 3.9e-05 s⁻¹	0.00148 ± 0.00051 s⁻¹	0.0102 ± 0.0018 s⁻¹	0.00297 ± 0.00077 s⁻¹	
G13U U31A A39C C68U U69A	< 1e-05 s⁻¹	< 1e-05 s⁻¹			< 1e-05 s⁻¹
A33C G44C U57A A64U	< 1e-05 s⁻¹	< 1e-05 s⁻¹	< 1e-05 s⁻¹	< 1e-05 s⁻¹	< 1e-05 s⁻¹
G35C G40U A64U	< 1e-05 s⁻¹			< 1e-05 s⁻¹	< 1e-05 s⁻¹
A15C G32U G40U	< 1e-05 s⁻¹		5.23e-05 ± 1.4e-05 s⁻¹		
C10A A33C	< 1e-05 s⁻¹	< 1e-05 s⁻¹	< 1e-05 s⁻¹	< 1e-05 s⁻¹	< 1e-05 s⁻¹
A6G C16G G29C A39G G43C U47G G51U C61A	< 1e-05 s⁻¹		< 1e-05 s⁻¹		
G9C U45C U47A C67G	< 1e-05 s⁻¹				
U46A A48U U57A G60U C67U C68A	< 1e-05 s⁻¹			< 1e-05 s⁻¹	
C8G G43A G59A G60U	< 1e-05 s⁻¹				
G13C C16U G63A	< 1e-05 s⁻¹				
A6G C10A G29U	< 1e-05 s⁻¹				

Variant	self-cleavage kobs at 40 uM GlcN6P [1]	self-cleavage kobs at 640 uM GlcN6P [2]	self-cleavage kobs at 10000 uM GlcN6P [3]	self-cleavage kobs at 2500 uM GlcN6P [4]	self-cleavage kobs at 160 uM GlcN6P [5]
U30A G44U	< 1e-05 s⁻¹				
G41A U49C U56A	< 1e-05 s⁻¹				
G32C G44C U55C C68A C70U	< 1e-05 s⁻¹			< 1e-05 s⁻¹	
A28C C34A G62C	< 1e-05 s⁻¹		< 1e-05 s⁻¹		
A6G G62U	< 1e-05 s⁻¹	< 1e-05 s⁻¹	< 1e-05 s⁻¹	< 1e-05 s⁻¹	< 1e-05 s⁻¹
G29C C34U	< 1e-05 s⁻¹	< 1e-05 s⁻¹	< 1e-05 s⁻¹	< 1e-05 s⁻¹	< 1e-05 s⁻¹
A12G U57A	< 1e-05 s⁻¹		4.27e-05 ± 9.1e-06 s⁻¹		
A6U G38A	< 1e-05 s⁻¹				
C16A G43C A48G C67U	< 1e-05 s⁻¹		< 1e-05 s⁻¹		
G40U G51U G62A C68U	< 1e-05 s⁻¹		< 1e-05 s⁻¹		
G32A C70U	6.22e-05 ± 6.9e-06 s⁻¹	0.000627 ± 9.7e-05 s⁻¹	0.00374 ± 0.00046 s⁻¹	0.000902 ± 0.00023 s⁻¹	0.000126 ± 2.7e-05 s⁻¹
A15C G32C A64U C67A	< 1e-05 s⁻¹				
U31C C70U	0.000152 ± 1.5e-05 s⁻¹	0.000731 ± 6.7e-05 s⁻¹		0.00284 ± 0.00074 s⁻¹	0.000343 ± 4.1e-05 s⁻¹
C8U G35U A39U G43U	< 1e-05 s⁻¹	< 1e-05 s⁻¹			
A33U A52C	< 1e-05 s⁻¹		< 1e-05 s⁻¹		< 1e-05 s⁻¹
A12C U49A	< 1e-05 s⁻¹				< 1e-05 s⁻¹
C34U C61A C67U	0.00014 ± 3.8e-05 s⁻¹	0.000388 ± 0.00011 s⁻¹	0.000236 ± 6.1e-05 s⁻¹	5.38e-05 ± 2.6e-05 s⁻¹	
A15C G32U A33C	< 1e-05 s⁻¹	< 1e-05 s⁻¹	< 1e-05 s⁻¹	< 1e-05 s⁻¹	< 1e-05 s⁻¹
G7U C50G	0.000281 ± 8.4e-05 s⁻¹			0.0008 ± 0.00024 s⁻¹	0.000551 ± 0.00024 s⁻¹
C8G U65C	< 1e-05 s⁻¹	< 1e-05 s⁻¹		< 1e-05 s⁻¹	< 1e-05 s⁻¹
G40U U56G G62C C67G	< 1e-05 s⁻¹				
C8G U31A G41C	< 1e-05 s⁻¹				
G32U C34G C68G	4.91e-05 ± 1.8e-05 s⁻¹		3.41e-05 ± 1.6e-05 s⁻¹		
G59C G62U	< 1e-05 s⁻¹		< 1e-05 s⁻¹		< 1e-05 s⁻¹

Variant	self-cleavage kobs at 40 uM GlcN6P [1]	self-cleavage kobs at 640 uM GlcN6P [2]	self-cleavage kobs at 10000 uM GlcN6P [3]	self-cleavage kobs at 2500 uM GlcN6P [4]	self-cleavage kobs at 160 uM GlcN6P [5]
U30C G35C G59C	< 1e-05 s⁻¹		< 1e-05 s⁻¹		
C8A A36U A64U C70U	< 1e-05 s⁻¹	< 1e-05 s⁻¹		< 1e-05 s⁻¹	
C8A U25C G37U U69G	0.000134 ± 3.6e-05 s⁻¹	0.000488 ± 0.00011 s⁻¹			
U55G C71U	0.00104 ± 0.00015 s⁻¹	0.00353 ± 0.0005 s⁻¹	0.034 ± 0.0078 s⁻¹	0.0044 ± 0.00066 s⁻¹	0.00128 ± 0.00022 s⁻¹
C8U A12U A33C G59U C67G U69G	< 1e-05 s⁻¹		< 1e-05 s⁻¹	< 1e-05 s⁻¹	
A6C A15C U54C C71U	< 1e-05 s⁻¹				
U31A U56A	0.000218 ± 3.2e-05 s⁻¹	0.00221 ± 0.00061 s⁻¹	0.00967 ± 0.0011 s⁻¹	0.00123 ± 0.0005 s⁻¹	
A12U A15U C16A G41A G66A	< 1e-05 s⁻¹				
G44C G51A	< 1e-05 s⁻¹	< 1e-05 s⁻¹	< 1e-05 s⁻¹	< 1e-05 s⁻¹	< 1e-05 s⁻¹
G7U U49A	< 1e-05 s⁻¹	< 1e-05 s⁻¹	< 1e-05 s⁻¹	< 1e-05 s⁻¹	< 1e-05 s⁻¹
C10G A12G G59U C61G	< 1e-05 s⁻¹				
C8U A42C	< 1e-05 s⁻¹	< 1e-05 s⁻¹	< 1e-05 s⁻¹	< 1e-05 s⁻¹	< 1e-05 s⁻¹
G38A C58U G59U	< 1e-05 s⁻¹		< 1e-05 s⁻¹		
A6U C8U	< 1e-05 s⁻¹	< 1e-05 s⁻¹	< 1e-05 s⁻¹	< 1e-05 s⁻¹	< 1e-05 s⁻¹
G9A G32C A52U	< 1e-05 s⁻¹		< 1e-05 s⁻¹		
G13U G29A G44U U55G	< 1e-05 s⁻¹		< 1e-05 s⁻¹		
U47A C70U	0.000803 ± 0.00012 s⁻¹	0.0018 ± 0.00029 s⁻¹	0.00993 ± 0.0023 s⁻¹	0.00221 ± 0.00048 s⁻¹	0.00118 ± 0.00023 s⁻¹
U31C G38C A39C	< 1e-05 s⁻¹			< 1e-05 s⁻¹	
G13C U57C	< 1e-05 s⁻¹	< 1e-05 s⁻¹			< 1e-05 s⁻¹
C16A U47C C50G G66A C67U U69G	7.74e-05 ± 2.6e-05 s⁻¹		4.24e-05 ± 1.6e-05 s⁻¹		
C11A A33U U45A	< 1e-05 s⁻¹	< 1e-05 s⁻¹		< 1e-05 s⁻¹	
